According to US20100260668A1 (published 2010):

How the values were obtained:
[1] = target: T1, ErbB3 (ErbB3 ECD/FC Chimera-His tag) (UniProt P21860 20-643, limits assumed); assay: Direct Bind ELISA, antigen on plate
T1 construct: extracellular domain; Bought reagent

DLL4 (DLL4 ECD/His tag) [2] = target: T2, DLL4 (DLL4 ECD/His tag) (UniProt Q9NR61 27-529, limits assumed); assay: Direct Bind ELISA, antigen on plate; N-terminal VD
T2 construct: extracellular domain; Bought reagent

DLL4 (DLL4 ECD/His tag) [3] = target: T2, DLL4 (DLL4 ECD/His tag); assay: Direct Bind ELISA, antigen on plate; C-terminal VD
PlGF (Placental GF) [4] = target: T3, PlGF (Placental GF) (UniProt P49763-2 21-149, limits assumed); assay: Direct Bind ELISA, antigen on plate; N-terminal VD
T3 construct: Bought reagent
T3 sequence (looked up): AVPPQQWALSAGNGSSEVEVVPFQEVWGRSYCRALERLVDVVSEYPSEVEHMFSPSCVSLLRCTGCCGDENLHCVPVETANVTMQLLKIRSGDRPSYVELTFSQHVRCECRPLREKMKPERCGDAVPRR

[5] = target: T4, human DLL4 extracellular domain (human, UniProt Q9NR61 27-529, biotin label in the Notch-1 competition ELISA (sites not given)); assay: competition ELISA: biotin-labelled human DLL4 ECD pre-mixed with DVD-Ig, then on coated human Notch-1 (competitor Notch-1)
T4 construct: extracellular domain; also called biotin labeled human DLL4 extracellular domain

PlGF (Placental GF) [6] = target: T3, PlGF (Placental GF); assay: Direct Bind ELISA, antigen on plate; C-terminal VD

B1: AB062 (anti-ErbB3 (seq. 1) parent antibody) (antibody, IgG1, V domains shown)
VH: QVQLQQWGAGLLKPSETLSLTCAVYGGSFSGYYWSWIRQPPGKGLEWIGEINHSGSTNYNPSLKSRVTISVETSKNQFSLKLSSVTAADTAVYYCARDKWTWYFDLWGRGTLVTVSS
VL: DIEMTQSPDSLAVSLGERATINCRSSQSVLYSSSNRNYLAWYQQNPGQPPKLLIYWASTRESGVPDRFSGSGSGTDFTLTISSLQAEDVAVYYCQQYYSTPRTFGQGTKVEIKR
notes: HC vector V1 (wild-type hIgG1 constant), LC vector V2 (kappa constant); also called AB062VH; AB062VL
[1]
  EC50: 1.93 nM

B2: DVD044 (DLL4 (seq. 1) and VEGF (seq. 1) DVD-Ig) (bispecific antibody, IgG1)
VH: EVQLVESGGGLVQPGGSLRLSCAASGFTFTDNWISWVRQAPGKGLEWVGYISPNSGFTYYADSVKGRFTISADTSKNTAYLQMNSLRAEDTAVYYCARDNFGGYFDYWGQGTLVTVSSASTKGPEVQLVESGGGLVQPGGSLRLSCAASGYTFTNYGMNWVRQAPGKGLEWVGWINTYTGEPTYAADFKRRFTFSLDTSKSTAYLQMNSLRAEDTAVYYCAKYPHYYGSSHWYFDVWGQGTLVTVSS
VL: DIQMTQSPSSLSASVGDRVTITCRASQDVSTAVAWYQQKPGKAPKLLIYSASFLYSGVPSRFSGSGSGTDFTLTISSLQPEDFATTYYCQQSYTGTVTFGQGTKVEIKRTVAAPDIQMTQSPSSLSASVGDRVTITCSASQDISNYLNWYQQKPGKAPKVLIYFTSSLHSGVPSRFSGSGSGTDFTLTISSLQPEDFATYYCQQYSTVPWTFGQGTKVEIKR
notes: HC vector V1 (wild-type hIgG1 constant), LC vector V2 (kappa constant); also called DVD044H; DVD044L
DLL4 (DLL4 ECD/His tag) [2]
  EC50: 0.53 nM

B3: DVD258 (PLGF (seq. 1) and DLL-4 (seq. 1) DVD-Ig) (bispecific antibody, IgG1)
VH: QVQLQQSGAELVKPGASVKISCKASGYTFTDYYINWVKLAPGQGLEWIGWIYPGSGNTKYNEKFKGKATLTIDTSSSTAYMQLSSLTSEDTAVYFCVRDSPFFDYWGQGTLLTVSSASTKGPEVQLVESGGGLVQPGGSLRLSCAASGFTFTDNWISWVRQAPGKGLEWVGYISPNSGFTYYADSVKGRFTISADTSKNTAYLQMNSLRAEDTAVYYCARDNFGGYFDYWGQGTLVTVSS
VL: DIVLTQSPDSLAVSLGERVTMNCKSSQSLLNSGMRKSFLAWYQQKPGQSPKLLIYWASTRESGVPDRFTGSGSGTDFTLTISSVQAEDVAVYYCKQSYHLFTFGSGTKLEIKRTVAAPDIQMTQSPSSLSASVGDRVTITCRASQDVSTAVAWYQQKPGKAPKLLIYSASFLYSGVPSRFSGSGSGTDFTLTISSLQPEDFATTYYCQQSYTGTVTFGQGTKVEIKR
notes: Outer AB047, inner AB015; HC vector V1 (wild-type hIgG1 constant), LC vector V2 (kappa constant); also called VD258H; VD258L
DLL4 (DLL4 ECD/His tag) [3]
  EC50: 2.3 nM
PlGF (Placental GF) [4]
  EC50: 0.08 nM

B4: DVD260 (PLGF (seq. 1) and VEGF (seq. 1) DVD-Ig) (bispecific antibody, IgG1)
VH: QVQLQQSGAELVKPGASVKISCKASGYTFTDYYINWVKLAPGQGLEWIGWIYPGSGNTKYNEKFKGKATLTIDTSSSTAYMQLSSLTSEDTAVYFCVRDSPFFDYWGQGTLLTVSSASTKGPEVQLVESGGGLVQPGGSLRLSCAASGYTFTNYGMNWVRQAPGKGLEWVGWINTYTGEPTYAADFKRRFTFSLDTSKSTAYLQMNSLRAEDTAVYYCAKYPHYYGSSHWYFDVWGQGTLVTVSS
VL: DIVLTQSPDSLAVSLGERVTMNCKSSQSLLNSGMRKSFLAWYQQKPGQSPKLLIYWASTRESGVPDRFTGSGSGTDFTLTISSVQAEDVAVYYCKQSYHLFTFGSGTKLEIKRTVAAPDIQMTQSPSSLSASVGDRVTITCSASQDISNYLNWYQQKPGKAPKVLIYFTSSLHSGVPSRFSGSGSGTDFTLTISSLQPEDFATYYCQQYSTVPWTFGQGTKVEIKR
notes: HC vector V1 (wild-type hIgG1 constant), LC vector V2 (kappa constant); also called VD260H; VD260L
PlGF (Placental GF) [4]
  EC50: 0.12 nM

B5: DVD043 (VEGF (seq. 1) N-terminal / DLL4 (seq. 1) C-terminal DVD-Ig) (bispecific antibody, human IgG1, kappa)
heavy: not shown
light: DIQMTQSPSSLSASVGDRVTITCSASQDISNYLNWYQQKPGKAPKVLIYFTSSLHSGVPSRFSGSGSGTDFTLTISSLQPEDFATYYCQQYSTVPWTFGQGTKVEIKRTVAAPDIQMTQSPSSLSASVGDRVTITCRASQDVSTAVAWYQQKPGKAPKLLIYSASFLYSGVPSRFSGSGSGTDFTLTISSLQPEDFATTYYCQQSYTGTVTFGQGTKVEIKRTVAAPSVFIFPPSDEQLKSGTASVVCLLNNFYPREAKVQWKVDNALQSGNSQESVTEQDSKDSTYSLSSTLTLSKADYEKHKVYACEVTHQGLSSPVTKSFNRGEC
notes: also called DVD043H/DVD043L
[5]
  IC50: 13.1 nM

B6: DVD258 (PLGF (seq. 1) N-terminal / DLL-4 (seq. 1) C-terminal DVD-Ig) (bispecific antibody, human IgG1, kappa)
heavy: not shown
light: DIVLTQSPDSLAVSLGERVTMNCKSSQSLLNSGMRKSFLAWYQQKPGQSPKLLIYWASTRESGVPDRFTGSGSGTDFTLTISSVQAEDVAVYYCKQSYHLFTFGSGTKLEIKRTVAAPDIQMTQSPSSLSASVGDRVTITCRASQDVSTAVAWYQQKPGKAPKLLIYSASFLYSGVPSRFSGSGSGTDFTLTISSLQPEDFATTYYCQQSYTGTVTFGQGTKVEIKRTVAAPSVFIFPPSDEQLKSGTASVVCLLNNFYPREAKVQWKVDNALQSGNSQESVTEQDSKDSTYSLSSTLTLSKADYEKHKVYACEVTHQGLSSPVTKSFNRGEC
notes: also called VD258H; VD258L
[5]
  IC50: 17.5 nM

B7: DVD257 (DLL-4 (seq. 1) and PLGF (seq. 1) DVD-Ig) (bispecific antibody, IgG1)
VH: EVQLVESGGGLVQPGGSLRLSCAASGFTFTDNWISWVRQAPGKGLEWVGYISPNSGFTYYADSVKGRFTISADTSKNTAYLQMNSLRAEDTAVYYCARDNFGGYFDYWGQGTLVTVSSASTKGPQVQLQQSGAELVKPGASVKISCKASGYTFTDYYINWVKLAPGQGLEWIGWIYPGSGNTKYNEKFKGKATLTIDTSSSTAYMQLSSLTSEDTAVYFCVRDSPFFDYWGQGTLLTVSS
VL: DIQMTQSPSSLSASVGDRVTITCRASQDVSTAVAWYQQKPGKAPKLLIYSASFLYSGVPSRFSGSGSGTDFTLTISSLQPEDFATTYYCQQSYTGTVTFGQGTKVEIKRTVAAPDIVLTQSPDSLAVSLGERVTMNCKSSQSLLNSGMRKSFLAWYQQKPGQSPKLLIYWASTRESGVPDRFTGSGSGTDFTLTISSVQAEDVAVYYCKQSYHLFTFGSGTKLEIKR
notes: Outer AB015, inner AB047; HC vector V1 (wild-type hIgG1 constant), LC vector V2 (kappa constant); also called 7H; VD257L
PlGF (Placental GF) [6]
  EC50: 2 nM
DLL4 (DLL4 ECD/His tag) [2]
  EC50: 0.28 nM

B8: DVD259 (VEGF (seq. 1) and PLGF (seq. 1) DVD-Ig) (bispecific antibody, IgG1)
VH: EVQLVESGGGLVQPGGSLRLSCAASGYTFTNYGMNWVRQAPGKGLEWVGWINTYTGEPTYAADFKRRFTFSLDTSKSTAYLQMNSLRAEDTAVYYCAKYPHYYGSSHWYFDVWGQGTLVTVSSASTKGPQVQLQQSGAELVKPGASVKISCKASGYTFTDYYINWVKLAPGQGLEWIGWIYPGSGNTKYNEKFKGKATLTIDTSSSTAYMQLSSLTSEDTAVYFCVRDSPFFDYWGQGTLLTVSS
VL: DIQMTQSPSSLSASVGDRVTITCSASQDISNYLNWYQQKPGKAPKVLIYFTSSLHSGVPSRFSGSGSGTDFTLTISSLQPEDFATYYCQQYSTVPWTFGQGTKVEIKRTVAAPDIVLTQSPDSLAVSLGERVTMNCKSSQSLLNSGMRKSFLAWYQQKPGQSPKLLIYWASTRESGVPDRFTGSGSGTDFTLTISSVQAEDVAVYYCKQSYHLFTFGSGTKLEIKR
notes: HC vector V1 (wild-type hIgG1 constant), LC vector V2 (kappa constant); also called VD259H; VD259L
PlGF (Placental GF) [6]
  EC50: 1.3 nM

B9: AB063 (anti-ErbB3 (seq. 2) parent antibody) (antibody, IgG1, V domains shown)
VH: EVQLVESGGGLVQPGGSLRLSCAASGFTFSIYSMNWVRQAPGKGLEWVSYISSSSSTIYYADSVKGRFTISRDNAKNSLYLQMNSLRDEDTAVYYCARDRGDFDAFDIWGQGTMVTVSS
VL: DIQMTQSPSSLSASVGDRVTITCQASQDITNYLNWYQQKPGKAPKLLIYDASNLETGVPSRFSGSGSGTDFTFTISSLQPEDIATYNCQQCENFPITFGQGTRLEIKR
notes: HC vector V1 (wild-type hIgG1 constant), LC vector V2 (kappa constant); also called AB063VH; AB063VL
[1]
  EC50: 0.28 nM

B10: DVD043 (VEGF (seq. 1) and DLL4 (seq. 1) DVD-Ig) (bispecific antibody, IgG1)
VH: EVQLVESGGGLVQPGGSLRLSCAASGYTFTNYGMNWVRQAPGKGLEWVGWINTYTGEPTYAADFKRRFTFSLDTSKSTAYLQMNSLRAEDTAVYYCAKYPHYYGSSHWYFDVWGQGTLVTVSSASTKGPEVQLVESGGGLVQPGGSLRLSCAASGFTFTDNWISWVRQAPGKGLEWVGYISPNSGFTYYADSVKGRFTISADTSKNTAYLQMNSLRAEDTAVYYCARDNFGGYFDYWGQGTLVTVSS
VL: DIQMTQSPSSLSASVGDRVTITCSASQDISNYLNWYQQKPGKAPKVLIYFTSSLHSGVPSRFSGSGSGTDFTLTISSLQPEDFATYYCQQYSTVPWTFGQGTKVEIKRTVAAPDIQMTQSPSSLSASVGDRVTITCRASQDVSTAVAWYQQKPGKAPKLLIYSASFLYSGVPSRFSGSGSGTDFTLTISSLQPEDFATTYYCQQSYTGTVTFGQGTKVEIKR
notes: HC vector V1 (wild-type hIgG1 constant), LC vector V2 (kappa constant); also called DVD043H; DVD043L
DLL4 (DLL4 ECD/His tag) [3]
  EC50: 2.12 nM
